B1: Flag-tagged IKKβ (full length) (protein)
chain: MSWSPSLTTQTCGAWEMKERLGTGGFGNVIRWHNQETGEQIAIKQCRQELSPRNRERWCLEIQIMRRLTHPNVVAARDVPEGMQNLAPNDLPLLAMEYCQGGDLRKYLNQFENCCGLREGAILTLLSDIASALRYLHENRIIHRDLKPENIVLQQGEQRLIHKIIDLGYAKELDQGSLCTSFVGTLQYLAPELLEQQKYTVTVDYWSFGTLAFECITGFRPFLPNWQPVQWHSKVRQKSEVDIVVSEDLNGTVKFSSSLPYPNNLNSVLAERLEKWLQLMLMWHPRQRGTDPTYGPNGCFKALDDILNLKLVHILNMVTGTIHTYPVTEDESLQSLKARIQQDTGIPEEDQELLQEAGLALIPDKPATQCISDGKLNEGHTLDMDLVFLFDNSKITYETQISPRPQPESVSCILQEPKRNLAFFQLRKVWGQVWHSIQTLKEDCNRLQQGQRAAMMNLLRNNSCLSKMKNSMASMSQQLKAKLDFFKTSIQIDLEKYSEQTEFGITSDKLLLAWREMEQAVELCGRENEVKLLVERMMALQTDIVDLQRSPMGRKQGGTLDDLEEQARELYRRLREKPRDQRTEGDSQEMVRLLLQAIQSFEKKVRVIYTQLSKTVVCKQKALELLPKVEEVVSLMNEDEKTVVRLQEKRQKELWNLLKIACSKVRGPVSGSPDSMNASRLSQPGQLMSQPSTASNSLPEPAKKSEELVAEAHNLCTLLENAIQDTVREQDQSFTALDWSWLQTEEEEHSCLEQAS
B2: Flag-tagged IKKα (protein)
chain: MERPPGLRPGAGGPWEMRERLGTGGFGNVCLYQHRELDLKIAIKSCRLELSTKNRERWCHEIQIMKKLNHANVVKACDVPEELNILIHDVPLLAMEYCSGGDLRKLLNKPENCCGLKESQILSLLSDIGSGIRYLHENKIIHRDLKPENIVLQDVGGKIIHKIIDLGYAKDVDQGSLCTSFVGTLQYLAPELFENKPYTATVDYWSFGTMVFECIAGYRPFLHHLQPFTWHEKIKKKDPKCIFACEEMSGEVRFSSHLPQPNSLCSLVVEPMENWLQLMLNWDPQQRGGPVDLTLKQPRCFVLMDHILNLKIVHILNMTSAKIISFLLPPDESLHSLQSRIERETGINTGSQELLSETGISLDPRKPASQCVLDGVRGCDSYMVYLFDKSKTVYEGPFASRSLSDCVNYIVQDSKIQLPIIQLRKVWAEAVHYVSGLKEDYSRLFQGQRAAMLSLLRYNANLTKMKNTLISASQQLKAKLEFFHKSIQLDLERYSEQMTYGISSEKMLKAWKEMEEKAIHYAEVGVIGYLEDQIMSLHAEIMELQKSPYGRRQGDLMESLEQRAIDLYKQLKHRPSDHSYSDSTEMVKIIVHTVQSQDRVLKELFGHLSKLLGCKQKIIDLLPKVEVALSNIKEADNTVMFMQGKRQKEIWHLLKIACTQSSARSLVGSSLEGAVTPQTSAWLPPTSAEHDHSLSCVVTPQDGETSAQMIEENLNCLGHLSTIIHEANEEQGNSMMNLDWSWLTE

Experiments:
[1] = target: T1, NLRC5-D2, containing the LRR-R1 (aa 651-898)
T1 chain: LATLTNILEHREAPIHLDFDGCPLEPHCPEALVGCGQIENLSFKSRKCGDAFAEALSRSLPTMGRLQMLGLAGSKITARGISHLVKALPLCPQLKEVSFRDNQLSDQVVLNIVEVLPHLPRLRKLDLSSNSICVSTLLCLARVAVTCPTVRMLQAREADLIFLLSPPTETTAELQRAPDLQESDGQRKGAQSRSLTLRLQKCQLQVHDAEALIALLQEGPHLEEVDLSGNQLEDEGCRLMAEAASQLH

[2] = target: T2, NLRC5-D4, containing the CARD domain and LRR-R3 (aa 1-215 plus 1471-1866)
T2 chain: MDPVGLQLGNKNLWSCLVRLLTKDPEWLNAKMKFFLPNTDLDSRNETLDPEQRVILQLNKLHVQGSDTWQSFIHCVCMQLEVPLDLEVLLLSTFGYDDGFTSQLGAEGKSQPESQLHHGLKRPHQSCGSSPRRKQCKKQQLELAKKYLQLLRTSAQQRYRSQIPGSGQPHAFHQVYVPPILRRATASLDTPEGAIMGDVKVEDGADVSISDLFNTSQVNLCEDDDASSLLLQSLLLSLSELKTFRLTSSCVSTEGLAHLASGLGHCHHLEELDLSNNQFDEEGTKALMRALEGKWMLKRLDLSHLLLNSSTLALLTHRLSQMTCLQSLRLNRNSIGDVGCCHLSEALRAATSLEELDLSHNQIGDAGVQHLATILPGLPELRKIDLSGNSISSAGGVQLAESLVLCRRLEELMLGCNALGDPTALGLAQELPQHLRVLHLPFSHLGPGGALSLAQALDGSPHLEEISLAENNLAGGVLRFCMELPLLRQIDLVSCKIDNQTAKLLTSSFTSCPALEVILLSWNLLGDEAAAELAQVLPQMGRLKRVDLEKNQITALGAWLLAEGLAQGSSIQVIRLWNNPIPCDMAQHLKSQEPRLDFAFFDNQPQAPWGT

[3] = target: T3, NLRC5-D1, containing the CARD and NOD domains (aa 1-517)
T3 chain: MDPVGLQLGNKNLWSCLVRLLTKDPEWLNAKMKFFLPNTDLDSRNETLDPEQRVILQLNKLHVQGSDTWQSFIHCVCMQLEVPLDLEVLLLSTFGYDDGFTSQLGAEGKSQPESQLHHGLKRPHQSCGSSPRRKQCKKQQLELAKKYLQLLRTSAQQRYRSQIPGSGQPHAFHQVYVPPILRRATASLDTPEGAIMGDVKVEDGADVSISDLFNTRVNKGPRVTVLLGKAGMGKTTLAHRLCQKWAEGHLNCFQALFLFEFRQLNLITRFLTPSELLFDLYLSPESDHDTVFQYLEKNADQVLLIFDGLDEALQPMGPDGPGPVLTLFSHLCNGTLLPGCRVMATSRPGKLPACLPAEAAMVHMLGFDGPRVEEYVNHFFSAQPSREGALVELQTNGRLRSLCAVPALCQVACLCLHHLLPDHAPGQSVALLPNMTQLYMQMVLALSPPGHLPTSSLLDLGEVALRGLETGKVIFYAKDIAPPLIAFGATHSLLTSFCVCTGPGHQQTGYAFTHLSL

[4] = target: T4, NLRC5-D3, containing the link region and LRR-R2 (aa 900-1329)
T4 chain: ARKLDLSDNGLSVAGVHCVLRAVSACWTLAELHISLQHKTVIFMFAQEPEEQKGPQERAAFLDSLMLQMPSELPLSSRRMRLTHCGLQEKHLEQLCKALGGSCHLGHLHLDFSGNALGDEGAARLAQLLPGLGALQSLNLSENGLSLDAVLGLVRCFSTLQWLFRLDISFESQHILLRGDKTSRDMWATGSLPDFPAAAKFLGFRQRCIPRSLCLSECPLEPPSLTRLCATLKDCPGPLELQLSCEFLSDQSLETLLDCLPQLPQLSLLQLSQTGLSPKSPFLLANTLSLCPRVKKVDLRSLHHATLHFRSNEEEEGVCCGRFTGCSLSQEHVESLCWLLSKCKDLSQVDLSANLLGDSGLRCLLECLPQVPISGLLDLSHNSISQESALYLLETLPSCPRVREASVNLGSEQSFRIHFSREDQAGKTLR

Protein | phosphorylation of IKKβ [1] | phosphorylation of IKKβ [2] | phosphorylation of IKKβ [3] | phosphorylation of IKKβ [4] | phosphorylation of IKKα [1] | phosphorylation of IKKα [2] | phosphorylation of IKKα [3] | phosphorylation of IKKα [4]
B1 | NLRC5-D1, -D2 and -D4 produced little or only slight inhibition | NLRC5-D1, -D2 and -D4 produced little or only slight inhibition | NLRC5-D1, -D2 and -D4 produced little or only slight inhibition | NLRC5-D3 strongly inhibited IKKα and IKKβ phosphorylation | – | – | – | –
B2 | – | – | – | – | NLRC5-D1, -D2 and -D4 produced little or only slight inhibition | NLRC5-D1, -D2 and -D4 produced little or only slight inhibition | NLRC5-D1, -D2 and -D4 produced little or only slight inhibition | NLRC5-D3 strongly inhibited IKKα and IKKβ phosphorylation

From patent publication US20110229560
